Experimental data reported in publication PMC5828221.

Biological target: purified recombinant histone H3 protein (Active Motif C110A), PARylated in vitro by PARP1 (UniProt P68431)

- decrease in H3K27me3 ELISA after in vitro methylation by the EZH2/PRC2 complex of PARylated against unmodified recombinant histone H3 (PARP1 removed beforehand): 30%
Substance: human EZH2/EED/SUZ12/RbAp48/AEBP2 Complex (from UniProt Q15910 1-746; O75530 1-441; Q15022 1-739; Q09028 1-425; Q6ZN18 1-517)
